Laboratory results: patent US20210388087A1 (Chugai, published 2021)
Changes are numbered by the printed parent chain. Names and notes keep the numbering of the source.

B1: H183/L072 VH A57S (antibody, name in Kabat numbering, V domains shown)
VH: QVQLVESGGGLVQPGRSLRLSCAASGFTFSNAWMHWVRQAPGKGLEWVAQIKDKGNAYASYYAPSVKGRFTISRDDSKNSIYLQMNSLKTEDTAVYYCHYVHYASASTVLPAFGVDAWGQGTTVTVSS
VL: DIVMTQSPLSLPVTPGEPASISCQASQELVHMNRNTYLHWYQQKPGQAPRLLIYKVSNRFPGVPDRFSGSGSGTDFTLKISRVEAEDVGVYYCAQGTSVPFTFGQGTKLEIK
B2: H183/L072 VH A60Y (antibody, name in Kabat numbering, V domains shown)
VH: B1 VH with S60A, A63Y
VL: B1 VL
B3: H183/L072 VH A98P (antibody, name in Kabat numbering, V domains shown)
VH: B1 VH with S60A, A104P
VL: B1 VL
B4: H183/L072 VH A100fP (antibody, name in Kabat numbering, V domains shown)
VH: B1 VH with S60A, A112P
VL: B1 VL
B5: H183/L072 VH A100fM (antibody, name in Kabat numbering, V domains shown)
VH: B1 VH with S60A, A112M
VL: B1 VL
B6: H183/L072 VH A100P (antibody, name in Kabat numbering, V domains shown)
VH: B1 VH with S60A, A106P
VL: B1 VL
B7: H183/L072 VH A60P (antibody, name in Kabat numbering, V domains shown)
VH: B1 VH with S60A, A63P
VL: B1 VL
B8: H183/L072 VH A102I (antibody, name in Kabat numbering, V domains shown)
VH: B1 VH with S60A, A117I
VL: B1 VL
B9: H183/L072 VH A57Y (antibody, name in Kabat numbering, V domains shown)
VH: B1 VH with S60Y
VL: B1 VL
B10: H183/L072 VH A98L (antibody, name in Kabat numbering, V domains shown)
VH: B1 VH with S60A, A104L
VL: B1 VL
B11: H183/L072 VH A100fL (antibody, name in Kabat numbering, V domains shown)
VH: B1 VH with S60A, A112L
VL: B1 VL
B12: H183/L072 VH D52aY (antibody, name in Kabat numbering, V domains shown)
VH: B1 VH with D53Y, S60A
VL: B1 VL
B13: H183/L072 VH A60I (antibody, name in Kabat numbering, V domains shown)
VH: B1 VH with S60A, A63I
VL: B1 VL
B14: H183/L072 VH F27E (antibody, name in Kabat numbering, V domains shown)
VH: B1 VH with F27E, S60A
VL: B1 VL
B15: H183/L072 VH A102M (antibody, name in Kabat numbering, V domains shown)
VH: B1 VH with S60A, A117M
VL: B1 VL
B16: H183/L072 VH A60R (antibody, name in Kabat numbering, V domains shown)
VH: B1 VH with S60A, A63R
VL: B1 VL
B17: H183/L072 VH D101A (antibody, name in Kabat numbering, V domains shown)
VH: B1 VH with S60A, D116A
VL: B1 VL
B18: H183/L072 VH A60W (antibody, name in Kabat numbering, V domains shown)
VH: B1 VH with S60A, A63W
VL: B1 VL
B19: H183/L072 VH D101L (antibody, name in Kabat numbering, V domains shown)
VH: B1 VH with S60A, D116L
VL: B1 VL
B20: H183/L072 VH A60K (antibody, name in Kabat numbering, V domains shown)
VH: B1 VH with S60A, A63K
VL: B1 VL
B21: H183/L072 VH A100fI (antibody, name in Kabat numbering, V domains shown)
VH: B1 VH with S60A, A112I
VL: B1 VL
B22: H183/L072 VH A60V (antibody, name in Kabat numbering, V domains shown)
VH: B1 VH with S60A, A63V
VL: B1 VL
B23: H183/L072 VH D101I (antibody, name in Kabat numbering, V domains shown)
VH: B1 VH with S60A, D116I
VL: B1 VL
B24: H183/L072 VH A100M (antibody, name in Kabat numbering, V domains shown)
VH: B1 VH with S60A, A106M
VL: B1 VL
B25: H183/L072 VH A60D (antibody, name in Kabat numbering, V domains shown)
VH: B1 VH with S60A, A63D
VL: B1 VL
B26: H183/L072 VH A98M (antibody, name in Kabat numbering, V domains shown)
VH: B1 VH with S60A, A104M
VL: B1 VL
B27: H183/L072 VH A57V (antibody, name in Kabat numbering, V domains shown)
VH: B1 VH with S60V
VL: B1 VL
B28: H183/L072 VH A60N (antibody, name in Kabat numbering, V domains shown)
VH: B1 VH with S60A, A63N
VL: B1 VL
B29: H183/L072 VH D101M (antibody, name in Kabat numbering, V domains shown)
VH: B1 VH with S60A, D116M
VL: B1 VL
B30: H183/L072 VH A98I (antibody, name in Kabat numbering, V domains shown)
VH: B1 VH with S60A, A104I
VL: B1 VL
B31: H183/L072 VH A100L (antibody, name in Kabat numbering, V domains shown)
VH: B1 VH with S60A, A106L
VL: B1 VL
B32: H183/L072 VH A60S (antibody, name in Kabat numbering, V domains shown)
VH: B1 VH with S60A, A63S
VL: B1 VL
B33: H183/L072 VH F27D (antibody, name in Kabat numbering, V domains shown)
VH: B1 VH with F27D, S60A
VL: B1 VL
B34: H183/L072 VH A60G (antibody, name in Kabat numbering, V domains shown)
VH: B1 VH with S60A, A63G
VL: B1 VL
B35: H183/L072 VH A60Q (antibody, name in Kabat numbering, V domains shown)
VH: B1 VH with S60A, A63Q
VL: B1 VL
B36: H183/L072 VH A57T (antibody, name in Kabat numbering, V domains shown)
VH: B1 VH with S60T
VL: B1 VL
B37: H183/L072 VH A60F (antibody, name in Kabat numbering, V domains shown)
VH: B1 VH with S60A, A63F
VL: B1 VL
B38: H183/L072 VH A102L (antibody, name in Kabat numbering, V domains shown)
VH: B1 VH with S60A, A117L
VL: B1 VL
B39: H183/L072 VH A60M (antibody, name in Kabat numbering, V domains shown)
VH: B1 VH with S60A, A63M
VL: B1 VL
B40: H183/L072 VH A100I (antibody, name in Kabat numbering, V domains shown)
VH: B1 VH with S60A, A106I
VL: B1 VL
B41: H183/L072 VH A60T (antibody, name in Kabat numbering, V domains shown)
VH: B1 VH with S60A, A63T
VL: B1 VL
B42: H183/L072 VH A60E (antibody, name in Kabat numbering, V domains shown)
VH: B1 VH with S60A, A63E
VL: B1 VL
B43: H183/L072 VH A60L (antibody, name in Kabat numbering, V domains shown)
VH: B1 VH with S60A, A63L
VL: B1 VL
B44: H183/L072 VH A60H (antibody, name in Kabat numbering, V domains shown)
VH: B1 VH with S60A, A63H
VL: B1 VL

What follows are binders tested against T1, Human CD137 ECD (human) (assay: single mutant vs template dBBDu183H).
T1 construct: also called 4-1BB
T1 sequence (chain, as listed by the source limits assumed): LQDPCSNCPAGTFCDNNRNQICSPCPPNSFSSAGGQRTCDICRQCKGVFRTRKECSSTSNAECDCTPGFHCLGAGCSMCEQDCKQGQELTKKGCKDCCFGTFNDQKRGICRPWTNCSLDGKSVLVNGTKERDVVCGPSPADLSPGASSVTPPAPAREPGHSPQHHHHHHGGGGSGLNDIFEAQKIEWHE

Point of comparison: B17, “fold change of affinity” value 2 fold. Against it:
- B1 — lower, 0.8 fold
- B2 — lower, 1.2 fold
- B3 — lower, 0 fold
- B4 — lower, 0.3 fold
- B5 — lower, 0 fold
- B6 — lower, 0.3 fold
- B7 — lower, 0.1 fold
- B8 — lower, 0 fold
- B9 — lower, 0 fold
- B10 — lower, 0 fold
- B11 — lower, 0 fold
- B12 — lower, 0 fold
- B13 — lower, 0.7 fold
- B14 — lower, 0.2 fold
- B15 — lower, 0 fold
- B16 — lower, 1.2 fold
- B18 — lower, 0.9 fold
- B19 — lower, 0 fold
- B20 — lower, 1.1 fold
- B21 — lower, 0 fold
- B22 — lower, 0.9 fold
- B23 — lower, 0 fold
- B24 — lower, 0.7 fold
- B25 — lower, 0.6 fold
- B26 — lower, 0 fold
- B27 — lower, 0.5 fold
- B28 — lower, 1.3 fold
- B29 — lower, 0 fold
- B30 — lower, 0 fold
- B31 — lower, 0 fold
- B32 — lower, 1 fold
- B33 — lower, 0.5 fold
- B34 — lower, 0.8 fold
- B35 — lower, 1.1 fold
- B36 — lower, 0.6 fold
- B37 — lower, 1.2 fold
- B38 — lower, 0.9 fold
- B39 — lower, 1 fold
- B40 — lower, 0 fold
- B41 — lower, 1.3 fold
- B42 — lower, 0.8 fold
- B43 — lower, 1.1 fold
- B44 — lower, 1.3 fold
